Values quoted from earlier work in paper PMC7379096 (ACS Omega, 2020).

Conditions: stated in the method section, no reference given

Q: With Immunoglobulin G [IgG] as the substance, how does the pI read?
A: 5.5–8.3
